Experimental data from patent publication US20110263454A1, “Methods of Identifying Functional Characteristics of Promoters, Transcription Modifying Proteins and Transcription Modulating Agents” (Salk Institute for Biological Studies, priority 2008, published 2011).

B1: FXR: Farnesoid X Receptor (NR1H4), cDNA driver (protein, UniProt Q96RI1 1-486, looked up)
Bile acid receptor: MVMQFQGLENPIQISPHCSCTPSGFFMEMMSMKPAKGVLTEQVAGPLGQNLEVEPYSQYSNVQFPQVQPQISSSSYYSNLGFYPQQPEEWYSPGIYELRRMPAETLYQGETEVAEMPVTKKPRMGASAGRIKGDELCVVCGDRASGYHYNALTCEGCKGFFRRSITKNAVYKCKNGGNCVMDMYMRRKCQECRLRKCKEMGMLAECMYTGLLTEIQCKSKRLRKNVKQHADQTVNEDSEGRDLRQVTSTTKSCREKTELTPDQQTLLHFIMDSYNKQRMPQEITNKILKEEFSAEENFLILTEMATNHVQVLVEFTKKLPGFQTLDHEDQIALLKGSAVEAMFLRSAEIFNKKLPSGHSDLLEERIRNSGISDEYITPMFSFYKSIGELKMTQEEYALLTAIVILSPDRQYIKDREAVEKLQEPLLDVLQKLCKIHQPENPQHFACLLGRLTELRTFNHHHAEMLMSWRVNDHKFTPLLCEIWDVQ
B2: PXR: Pregnane X Receptor (NR1I2), cDNA driver (protein, UniProt O75469 1-434, looked up)
Nuclear receptor subfamily 1 …: MEVRPKESWNHADFVHCEDTESVPGKPSVNADEEVGGPQICRVCGDKATGYHFNVMTCEGCKGFFRRAMKRNARLRCPFRKGACEITRKTRRQCQACRLRKCLESGMKKEMIMSDEAVEERRALIKRKKSERTGTQPLGVQGLTEEQRMMIRELMDAQMKTFDTTFSHFKNFRLPGVLSSGCELPESLQAPSREEAAKWSQVRKDLCSLKVSLQLRGEDGSVWNYKPPADSGGKEIFSLLPHMADMSTYMFKGIISFAKVISYFRDLPIEDQISLLKGAAFELCQLRFNTVFNAETGTWECGRLSYCLEDTAGGFQQLLLEPMLKFHYMLKKLQLHEEEYVLMQAISLFSPDRPGVLQHRVVDQLQEQFAITLKSYIECNRPQPAHRFLFLKIMAMLTELRSINAQHTQRLLRIQDIHPFATPLMQELFGITGS
B3: RXRg: Retinoic X Receptor γ (NR2B3), cDNA driver (protein, UniProt P48443 1-463, looked up)
Retinoic acid receptor …: MYGNYSHFMKFPAGYGGSPGHTGSTSMSPSAALSTGKPMDSHPSYTDTPVSAPRTLSAVGTPLNALGSPYRVITSAMGPPSGALAAPPGINLVAPPSSQLNVVNSVSSSEDIKPLPGLPGIGNMNYPSTSPGSLVKHICAICGDRSSGKHYGVYSCEGCKGFFKRTIRKDLIYTCRDNKDCLIDKRQRNRCQYCRYQKCLVMGMKREAVQEERQRSRERAESEAECATSGHEDMPVERILEAELAVEPKTESYGDMNMENSTNDPVTNICHAADKQLFTLVEWAKRIPHFSDLTLEDQVILLRAGWNELLIASFSHRSVSVQDGILLATGLHVHRSSAHSAGVGSIFDRVLTELVSKMKDMQMDKSELGCLRAIVLFNPDAKGLSNPSEVETLREKVYATLEAYTKQKYPEQPGRFAKLLLRLPALRSIGLKCLEHLFFFKLIGDTPIDTFLMEMLETPLQIT
B4: RXRb: Retinoic X Receptor β (NR2B2), cDNA driver (protein, UniProt P28702 1-533, looked up)
Retinoic acid receptor …: MSWAARPPFLPQRHAAGQCGPVGVRKEMHCGVASRWRRRRPWLDPAAAAAAAVAGGEQQTPEPEPGEAGRDGMGDSGRDSRSPDSSSPNPLPQGVPPPSPPGPPLPPSTAPSLGGSGAPPPPPMPPPPLGSPFPVISSSMGSPGLPPPAPPGFSGPVSSPQINSTVSLPGGGSGPPEDVKPPVLGVRGLHCPPPPGGPGAGKRLCAICGDRSSGKHYGVYSCEGCKGFFKRTIRKDLTYSCRDNKDCTVDKRQRNRCQYCRYQKCLATGMKREAVQEERQRGKDKDGDGEGAGGAPEEMPVDRILEAELAVEQKSDQGVEGPGGTGGSGSSPNDPVTNICQAADKQLFTLVEWAKRIPHFSSLPLDDQVILLRAGWNELLIASFSHRSIDVRDGILLATGLHVHRNSAHSAGVGAIFDRVLTELVSKMRDMRMDKTELGCLRAIILFNPDAKGLSNPSEVEVLREKVYASLETYCKQKYPEQQGRFAKLLLRLPALRSIGLKCLEHLFFFKLIGDTPIDTFLMEMLEAPHQLA
B5: CAR: Constitutive Androstane Receptor (NR1I3), cDNA driver (protein, UniProt Q14994 1-352, looked up)
Nuclear receptor subfamily 1 …: MASREDELRNCVVCGDQATGYHFNALTCEGCKGFFRRTVSKSIGPTCPFAGSCEVSKTQRRHCPACRLQKCLDAGMRKDMILSAEALALRRAKQAQRRAQQTPVQLSKEQEELIRTLLGAHTRHMGTMFEQFVQFRPPAHLFIHHQPLPTLAPVLPLVTHFADINTFMVLQVIKFTKDLPVFRSLPIEDQISLLKGAAVEICHIVLNTTFCLQTQNFLCGPLRYTIEDGARVSPTVGFQVEFLELLFHFHGTLRKLQLQEPEYVLLAAMALFSPDRPGVTQRDEIDQLQEEMALTLQSYIKGQQRRPRDRFLYAKLLGLLAELRSINEAYGYQIQHIQGLSAMMPLLQEICS

Assays:
[1] = system: mDio2 promoter; assay: NHR-promoter luciferase screen, mDio2 promoter; format: cell-based, mouse; settings: for Luc. act., normalized to lacZ / Normalized Luc. act., normalized to control: Dio2, HR component without or with its ligand; for mDio2 promoter reporter activity: transcription factor +/- ligand, control = 1.00
Summary of the method: (§1)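 CV-1 cells were co-transfected with 50 ng NHR (homodimer or NHR/RXR heterodimer), 100 ng promoter-luciferase construct and 50 ng LacZ. Luciferase was normalized to LacZ and to a no-NHR/no-ligand control.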

[2] = system: hMyoD promoter; assay: NHR-promoter luciferase screen, hMyoD promoter; format: cell-based, human; settings: for Luc. act., normalized to lacZ / Normalized Luc. act., normalized to control: MyoD promoter reporter, co-transfected HR, without or with its ligand; for Normalized Luc. act., normalized to control: relative to control; for luciferase activity normalized to lacZ activity and to a control, hMyoD: hMyoD promoter-luciferase, CV-1 cells, NHR +/- ligand, control = 1.00
Summary of the method: as §1

[3] = system: mABCA1 promoter; assay: NHR-promoter luciferase screen, mABCA1 promoter; format: cell-based, mouse; settings: for Luc. act., normalized to lacZ / Normalized Luc. act., normalized to control: ABCA1 promoter, hormone receptor with or without its ligand; for Normalized Luc. act., normalized to control: relative to control; for mABCA1 promoter reporter activity: transcription factor +/- ligand, control = 1.00
Summary of the method: as §1

[4] = system: mUCP3 promoter; assay: NHR-promoter luciferase screen, mUCP3 promoter; format: cell-based, mouse; settings: for Normalized Luc. act., normalized to control / Luc. act., normalized to lacZ: mUCP3 promoter reporter; for Normalized Luc. act., normalized to control: HR without or with its ligand, relative to control; for Luc. act., normalized to lacZ: hormone receptor (HR) without or with its ligand; for mUCP3 promoter reporter activity: transcription factor +/- ligand, control = 1.00
Summary of the method: as §1

[5] = system: hCAR promoter; assay: NHR-promoter luciferase screen, hCAR promoter; format: cell-based, human; settings: for luciferase activity normalized to lacZ activity and to a control, hCAR: hCAR promoter-luciferase, CV-1 cells, NHR +/- ligand, control = 1.00; for Luc. act., normalized to lacZ / Normalized Luc. act., normalized to control: hCAR promoter, HR/ligand component
Summary of the method: as §1

[6] = system: mNPY promoter; assay: NHR-promoter luciferase screen, mNPY promoter; format: cell-based, mouse; settings: for Results of assays of transcription factor (+/- ligand) with mNPY: Table 6d, luciferase activity relative to control (control = 1.00); for Luc. act., normalized to lacZ / Normalized Luc. act., normalized to control: mNPY promoter, HR component with or without ligand; for Normalized Luc. act., normalized to control: relative to control
Summary of the method: as §1

| Molecule | Luc. act., normalized to lacZ [1] | Normalized Luc. act., normalized to control [1] | mDio2 promoter reporter activity [1] | Luc. act., normalized to lacZ [2] | Normalized Luc. act., normalized to control [2] | luciferase activity normalized to lacZ activity and to a control, hMyoD [2] | Luc. act., normalized to lacZ [3] | Normalized Luc. act., normalized to control [3] | mABCA1 promoter reporter activity [3] | Normalized Luc. act., normalized to control [4] | Luc. act., normalized to lacZ [4] | mUCP3 promoter reporter activity [4] | luciferase activity normalized to lacZ activity and to a control, hCAR [5] | Luc. act., normalized to lacZ [5] | Normalized Luc. act., normalized to control [5] | Results of assays of transcription factor (+/- ligand) with mNPY [6] | Luc. act., normalized to lacZ [6] | Normalized Luc. act., normalized to control [6] |
| --- | --- | --- | --- | --- | --- | --- | --- | --- | --- | --- | --- | --- | --- | --- | --- | --- | --- | --- |
| B1 | 20.2 | 1.3 | 1.29 | 36.5 | 0.6 | 0.58 | 14.0 | 2.5 | 2.50 | 1.3 | 0.9 | 1.30 | 0.78 | 24.6 | 0.8 | 0.92 | 77.7 | 0.9 |
| B2 | 32.7 | 2.1 | 2.08 | 50.6 | 0.8 | 0.80 | 15.2 | 2.7 | 2.72 | 1.3 | 0.9 | 1.34 | 1.16 | 36.5 | 1.2 | 0.83 | 69.8 | 0.8 |
| B3 | 27.8 | 1.8 | 1.77 | 67.6 | 1.1 | 1.07 | 18.3 | 3.3 | 3.26 | 1.4 | 1.0 | 1.41 | 0.93 | 29.3 | 0.9 | 0.97 | 81.2 | 1.0 |
| B4 | 22.8 | 1.5 | 1.45 | 54.3 | 0.9 | 0.86 | 11.1 | 2.0 | 1.97 | 0.8 | 0.6 | 0.83 | 0.95 | 30.1 | 1.0 | 0.80 | 66.9 | 0.8 |
| B5 | 18.4 | 1.2 | 1.17 | 51.2 | 0.8 | 0.81 | 6.1 | 1.1 | 1.08 | 0.9 | 0.6 | 0.90 | 0.82 | 25.9 | 0.8 | 0.88 | 74.2 | 0.9 |
